Experimental data: patent publication US20120201826A1 (NOV IMMUNE S A, published 2012)
Residue numbers refer to the chain shown, from its start.

Columns and labels:
[1] = molecular target: T1, recombinant human RANTES (huRANTES, Peprotech) (human, UniProt P13501 24-91); test: cell-based or functional assay
T1 sequence: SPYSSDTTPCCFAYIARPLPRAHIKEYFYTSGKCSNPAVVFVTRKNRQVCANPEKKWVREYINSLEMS

[2] = molecular target: T2, native human RANTES produced by THP1 cells (human, UniProt P13501 24-91); test: cell-based or functional assay
T2 sequence: T1 sequence

[3] = molecular target: T1, recombinant human RANTES (huRANTES, …); test: cell-based or functional assay; remark: listed apart in the source
[4] = molecular target: T1, recombinant human RANTES (huRANTES, …); test: cell-based or functional assay; remark: listed apart in the source
[5] = molecular target: T2, native human RANTES produced by THP1 …; test: cell-based or functional assay; remark: listed apart in the source
[6] = molecular target: T3, rat RANTES, expressed as fusion protein (ELISA panel) (rat, UniProt P30882 24-91 (mouse entry), Biotinylated in vivo at the AviTag, which is not in the letters); test: ELISA, chemokine coated at 5 ug/ml, concentration range of 1E4
T3 construct: not shown: NusA fusion partner with Factor X site, and the C-terminal AviTag
T3 sequence (P30882 24-91 limits assumed): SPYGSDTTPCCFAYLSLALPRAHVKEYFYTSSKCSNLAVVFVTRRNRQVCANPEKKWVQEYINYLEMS

[7] = molecular target: T1, recombinant human RANTES (huRANTES, …); test: SPR (Biacore 2000), 1E4 captured on anti-human IgG, chemokine as analyte, 25 C, 1:1 Langmuir fit
Protocol: (§1) 433 RU (response unit) of a donkey anti-human IgG polyclonal antibody were immobilized by EDC/NHS chemistry on a C1 Biacore chip. […] The surface was regenerated after each cycle by injection of 10 mM glycine pH=2 at 30 μL/min, for 60s followed by 1 min. of stabilization time in HBS-EP buffer.
(§2) All proteins were diluted in the running buffer HBS-EP buffer (Biacore AB, Uppsala, Sweden). Injection was performed at 75 μl/min for 3 min. followed by 15 min. of dissociation time and the temperature was set at 25° C.

[8] = molecular target: T4, NusA-huRANTES fusion protein (human, UniProt P13501 24-91, biotinylated in vivo at the AviTag); test: as above
T4 construct: GenBank M21121 is printed for the human RANTES gene; also called NusA-Rantes; not shown: NusA fusion partner of expression plasmid pET43 (Novagen); Factor X protease cleavage site at the C-terminus of NusA; AviTag biotinylation site at the C-terminus of the chemokine
T4 sequence: T1 sequence
Protocol: as §1, §2

[9] = molecular target: T5, NusA-cynoRANTES fusion protein (cynomolgus monkey, UniProt Q8HYQ1 24-91 (rhesus entry), biotinylated in vivo at the AviTag); test: as above
T5 construct: also called cynomolgus RANTES; not shown: NusA fusion partner of expression plasmid pET43 (Novagen); Factor X protease cleavage site at the C-terminus of NusA; AviTag biotinylation site at the C-terminus of the chemokine
T5 sequence: T1 sequence with Y3H, S4A
Protocol: as §1, §2

[10] = molecular target: T6, moIP-10 (mouse, UniProt P17515); test: ELISA: chemokine fusion protein coated at 5 µg/ml, titration of 1E4, anti-human Fc-gamma-HRP and fluorescent substrate
T6 construct: coated protein of the ELISA panel; also called mouse IP-10
T6 sequence (chemokine, looked up): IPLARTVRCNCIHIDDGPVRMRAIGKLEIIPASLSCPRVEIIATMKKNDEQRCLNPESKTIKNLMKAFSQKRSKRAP

[11] = molecular target: T7, ratIP-10 (rat, UniProt P48973); test: as above
T7 construct: coated protein of the ELISA panel
T7 sequence (chemokine, looked up): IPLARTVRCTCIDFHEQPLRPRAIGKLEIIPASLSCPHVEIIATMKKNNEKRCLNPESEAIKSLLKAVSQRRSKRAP

[12] = molecular target: T4, NusA-huRANTES fusion protein; test: as above
[13] = molecular target: T5, NusA-cynoRANTES fusion protein; test: as above
[14] = molecular target: T8, mouse RANTES, expressed as fusion protein (ELISA panel) (mouse, UniProt P30882 24-91, Biotinylated in vivo at the AviTag, which is not in the letters); test: as above
T8 construct: not shown: NusA fusion partner with Factor X site, and the C-terminal AviTag
T8 sequence (P30882 24-91 limits assumed): as the sequence (P30882 24-91 limits assumed) above

[15] = molecular target: T9, mouse RANTES, biotinylated in vivo (Example 14) (mouse, UniProt P30882 24-91, biotinylated in vivo at the AviTag); test: ELISA: biotinylated chemokine captured on Streptawell plate, 1E4 at 1 µg/ml, goat anti-human IgG Fc-gamma-HRP, TMB, OD450
T9 construct: Captured on streptavidin plates; not shown: AviTag biotinylation site at the C-terminus
T9 sequence (P30882 24-91): as the sequence (P30882 24-91 limits assumed) above
Protocol: Three mutants of mouse RANTES were generated by site directed mutagenesis in order to introduce the human residues at those positions: [S16A/L17R/A18P]; [S32G/L37P] and [Q59R/Y64S]. […] These variant of mouse RANTES were captured in streptavidin coated plates (Streptawell, Roche). […] The plate was washed and incubated with a goat anti-human IgG Fcγ-specific antibody coupled to horse radish peroxidase (Jackson). […] The plates were read at 450 nm.

Chemotaxis IC50 (nM), 0.2 nM huRANTES; L1.2-hCCR5 cells; IgG1 format [1]: 0.034 nM
Chemotaxis IC50 (nM), 1 nM huRANTES; L1.2-hCCR5 cells; IgG1 format [1]: 0.46 nM
Chemotaxis IC50 (nM), native huRANTES from THP1 cells; L1.2-hCCR5 cells; IgG1 format [2]: 0.028 nM
Calcium flux IC50 (nM); L1.2-hCCR1; 25 nM huRANTES [3]: 4.9 nM
Calcium flux IC50 (nM); L1.2-hCCR3; 25 nM huRANTES [3]: 4.46 nM
Calcium flux IC50 (nM); L1.2-hCCR5; 4 nM huRANTES [3]: 0.54 nM
Chemotaxis IC50 (nM); L1.2-hCCR1; 2 nM huRANTES [4]: 0.46 nM
Chemotaxis IC50 (nM); L1.2-hCCR3; 10 nM huRANTES [4]: 3.33 nM
Chemotaxis IC50 (nM); L1.2-hCCR5; 1 nM huRANTES [4]: 0.2 nM
Chemotaxis IC50 (nM); L1.2-hCCR5; 1 nM native huRANTES [5]: 0.09 nM
binding result [6]: no binding
Kd [7]: 0.455 nM
Kd [8]: 0.447 nM
Kd [9]: 2.24 nM
binding result [10]: no binding (tested: about 3 µg/ml)
binding result [11]: no binding (tested: about 3 µg/ml)
EC50 (read off the curve) [12]: ~0.01 µg/mL
EC50 (read off the curve) [13]: ~0.01 µg/mL
binding result [14]: no binding (tested: about 3 µg/ml)
binding result [15]: no binding (tested: 1 µg/ml)
B1: 1E4 antibody, IgG1 format (antibody, V domains shown)
VH: QVQLVQSGAEVKKPGASVKVSCKVSGYTLTEFAMHWVRQAPGKGLEWMGGFVPEDGETIYAQKFQGRVTMTEDTSTDTAYMELSSLRSEDTAVYYCATDPLYEGSFSVWGQGTTVTVSS
VL: SYVLTQPPSVSVAPGQTARITCGGNNIESKSVHWYQQKPGQAPVLVVYDDSDRPSGIPERFSGSNSGNTATLTISRVEAGDEADYYCQVWDSNTDHWVFGGGTKLTVLG
notes: also called antibody 1E4 purified from CHO supernatant
